Source: patent US11311631B2, “Paclitaxel-albumin-binding agent compositions and methods for using and making the same” (Mayo Foundation for Medical Education and Research, priority 2016, dated 2022)

Molecular target: T1, CD20+ Daudi lymphoma cells (Homo sapiens, UniProt P11836)
T1 construct: co-incubated with CD20+ Daudi lymphoma cells for 30 minutes at room temperature; endogenous in cells; host or cells: Daudi lymphoma cells
T1 sequence (P11836 1-297): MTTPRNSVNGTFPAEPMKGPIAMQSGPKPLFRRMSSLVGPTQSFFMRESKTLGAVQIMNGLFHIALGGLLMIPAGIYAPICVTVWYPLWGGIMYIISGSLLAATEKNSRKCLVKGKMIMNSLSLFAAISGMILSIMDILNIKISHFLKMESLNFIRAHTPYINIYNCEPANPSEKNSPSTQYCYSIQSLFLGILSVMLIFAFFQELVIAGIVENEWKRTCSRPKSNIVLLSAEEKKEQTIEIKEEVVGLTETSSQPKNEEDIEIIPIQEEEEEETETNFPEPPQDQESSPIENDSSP
Test: Daudi cell CD20 blocking (subsequent PE anti-human CD20 staining)
Type: cell-based
Conditions: co-incubated with CD20+ Daudi cells 30 minutes at room temperature
Experimental: […] show blocking of CD20-positive Daudi cells with isotype control (FIG. 5A), anti-CD20 antibody (FIG. 5B), ABRAXANE® (FIG. 5C), AR160 (FIG. 5D), NTP (FIG. 5E), rituximab-bound NTP (NTRit; FIG. 5F), or rituximab alone (FIG. 5G).
ABX, AR160, Non-toxic nanoparticle (NTP) and rituximab-bound NTP were prepared as described above or previously (see, e.g., PCT Pub. No. WO2014/055415, which is incorporated herein by reference in its entirety). The nanoparticles and unlabeled rituximab were co-incubated with CD20+ Daudi lymphoma cells for 30 minutes at room temperature. The cells were washed and subsequently stained with PE anti-human CD20. Isotype (FIG. 5A) and anti-CD20 (FIG. 5B) stained cells served as negative and positive controls, respectively.

Q: How did the “blocking of subsequent binding of PE anti-human CD20” value turn out when rituximab: anti-CD20 antibody (Rituxan) was run?
A: The value was “block subsequent binding of PE anti-human CD20”.
